Experimental findings from patent publication US20230381229A1 are described below.

The target of assay [1] is CD80 expressed on cells (Homo sapiens). Nature of the assay: flow cytometry, cells expressing CD80.
The target of assay [2] is PD-1 expressed on cells (human). As to the kind of experiment: flow cytometry, cells expressing PD-1.
The target in assay [3] is CD112R (Homo sapiens (Human)) (UniProt Q6DKI7). As to the kind of experiment: flow cytometry, transfected HEK293 cells, 100 nM.
The target of the next assay is T1, human CD226 (human).
T1 sequence: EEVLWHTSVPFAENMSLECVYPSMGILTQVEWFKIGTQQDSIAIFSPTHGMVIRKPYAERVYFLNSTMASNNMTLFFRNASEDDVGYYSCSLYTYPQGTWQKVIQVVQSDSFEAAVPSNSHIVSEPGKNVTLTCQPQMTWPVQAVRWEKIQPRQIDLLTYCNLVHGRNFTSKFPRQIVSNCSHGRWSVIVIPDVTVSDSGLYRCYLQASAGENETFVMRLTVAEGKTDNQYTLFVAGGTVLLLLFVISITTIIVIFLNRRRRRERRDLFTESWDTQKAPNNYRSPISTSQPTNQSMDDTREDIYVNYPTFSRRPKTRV
Nature of the assay: flow cytometry, transfected HEK293 cells, 100 nM.

A further assay addresses T2, human CD96 (human) (UniProt P40200).
T2 sequence: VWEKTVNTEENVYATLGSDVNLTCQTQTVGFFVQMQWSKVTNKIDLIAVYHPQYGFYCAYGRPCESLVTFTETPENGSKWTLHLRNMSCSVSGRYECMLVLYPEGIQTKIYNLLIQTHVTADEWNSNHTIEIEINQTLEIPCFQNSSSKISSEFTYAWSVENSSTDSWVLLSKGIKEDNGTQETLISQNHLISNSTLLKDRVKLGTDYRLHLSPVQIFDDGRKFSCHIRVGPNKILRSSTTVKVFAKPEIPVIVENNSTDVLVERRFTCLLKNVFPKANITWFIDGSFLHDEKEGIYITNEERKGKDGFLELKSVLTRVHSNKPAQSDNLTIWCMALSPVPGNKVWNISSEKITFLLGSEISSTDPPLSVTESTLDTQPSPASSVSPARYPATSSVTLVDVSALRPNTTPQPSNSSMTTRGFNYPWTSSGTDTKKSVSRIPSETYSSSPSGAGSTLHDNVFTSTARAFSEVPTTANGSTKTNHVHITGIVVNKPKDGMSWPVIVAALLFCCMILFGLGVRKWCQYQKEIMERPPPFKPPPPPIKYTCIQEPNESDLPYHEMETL
Nature of the assay: flow cytometry, transfected HEK293 cells, 100 nM.

Assay [4] deals with human TIGIT (human). As to the kind of experiment: flow cytometry, transfected HEK293 cells, 100 nM.
The target of assay [5] is CD112R (Homo sapiens (Human)) (UniProt Q6DKI7).
Assay [6] has as its target human TIGIT (human).
The next assay concerns the target PD-1-Fc (Homo sapiens). As to the kind of experiment: ForteBio, PD-1-Fc.
Assay [7] has as its target PD-1 expressed on cells (human). Nature of the assay: flow cytometry, Jurkat/PD-1 cells.
Target sequence in this assay (chain, as listed by the source): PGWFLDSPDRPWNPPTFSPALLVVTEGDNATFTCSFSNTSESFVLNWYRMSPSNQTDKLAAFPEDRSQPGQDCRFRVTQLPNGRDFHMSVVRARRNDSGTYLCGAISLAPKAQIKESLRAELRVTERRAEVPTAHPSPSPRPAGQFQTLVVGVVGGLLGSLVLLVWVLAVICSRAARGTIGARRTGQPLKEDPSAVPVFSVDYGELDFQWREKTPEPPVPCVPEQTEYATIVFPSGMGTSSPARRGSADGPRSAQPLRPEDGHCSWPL
In assay [8] the target is T3, human CD96, full-length, expressed on transfected HEK293 cells (human) (UniProt P40200).
T3 sequence: T2 sequence
As to the kind of experiment: flow cytometry, HEK293 transfectants, 100 nM.

Assay [9] concerns the target T4, human TIGIT, full-length, expressed on transfected HEK293 cells (human).
T4 sequence: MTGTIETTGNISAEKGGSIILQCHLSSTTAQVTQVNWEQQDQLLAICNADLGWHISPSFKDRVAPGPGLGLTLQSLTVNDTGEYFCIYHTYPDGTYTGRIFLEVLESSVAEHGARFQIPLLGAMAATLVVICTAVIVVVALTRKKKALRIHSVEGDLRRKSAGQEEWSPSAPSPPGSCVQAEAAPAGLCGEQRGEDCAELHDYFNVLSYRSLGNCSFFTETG
As to the kind of experiment: flow cytometry, HEK293 transfectants, 100 nM.

Chain of CD155 IgV Fc (P15151 21-142): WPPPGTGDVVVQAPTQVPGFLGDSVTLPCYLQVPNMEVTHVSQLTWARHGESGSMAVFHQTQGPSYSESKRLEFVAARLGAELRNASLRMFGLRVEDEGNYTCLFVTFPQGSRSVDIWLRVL
Chain of CD112R (Homo sapiens (Human)) (Q6DKI7 whole entry): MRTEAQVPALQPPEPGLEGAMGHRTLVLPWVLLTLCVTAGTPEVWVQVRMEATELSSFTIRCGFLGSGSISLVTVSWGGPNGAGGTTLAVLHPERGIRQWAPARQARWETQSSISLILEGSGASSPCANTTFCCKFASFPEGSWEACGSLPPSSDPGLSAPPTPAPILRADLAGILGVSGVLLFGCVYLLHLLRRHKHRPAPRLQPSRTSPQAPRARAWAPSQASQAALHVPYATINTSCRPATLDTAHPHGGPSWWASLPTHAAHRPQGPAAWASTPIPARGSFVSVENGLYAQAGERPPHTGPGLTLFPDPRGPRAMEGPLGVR
Chain of CD112 ECD-Fc (Fc fusion) (chain): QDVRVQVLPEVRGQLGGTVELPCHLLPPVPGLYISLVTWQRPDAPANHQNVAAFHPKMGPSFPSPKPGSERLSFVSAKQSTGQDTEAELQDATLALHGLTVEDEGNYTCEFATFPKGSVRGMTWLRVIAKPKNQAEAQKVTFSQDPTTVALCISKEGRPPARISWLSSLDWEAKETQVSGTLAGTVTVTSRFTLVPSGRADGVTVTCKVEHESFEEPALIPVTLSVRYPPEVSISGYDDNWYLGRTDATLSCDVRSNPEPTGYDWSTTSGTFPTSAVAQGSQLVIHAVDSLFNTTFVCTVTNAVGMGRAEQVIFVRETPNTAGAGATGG
Chain of PD-1-Fc (Homo sapiens) (chain, as listed by the source limits assumed): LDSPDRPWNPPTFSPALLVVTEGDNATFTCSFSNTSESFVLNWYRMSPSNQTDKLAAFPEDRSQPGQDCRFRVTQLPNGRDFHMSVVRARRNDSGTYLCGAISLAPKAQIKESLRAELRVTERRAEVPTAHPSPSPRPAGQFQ
Chain of CTLA4-Fc (Fc fusion) (chain): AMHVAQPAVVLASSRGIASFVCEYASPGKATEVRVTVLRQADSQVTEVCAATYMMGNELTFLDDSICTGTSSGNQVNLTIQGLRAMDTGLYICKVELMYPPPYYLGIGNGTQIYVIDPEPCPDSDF
Chain of human PD-1 (human) (chain, as listed by the source limits assumed): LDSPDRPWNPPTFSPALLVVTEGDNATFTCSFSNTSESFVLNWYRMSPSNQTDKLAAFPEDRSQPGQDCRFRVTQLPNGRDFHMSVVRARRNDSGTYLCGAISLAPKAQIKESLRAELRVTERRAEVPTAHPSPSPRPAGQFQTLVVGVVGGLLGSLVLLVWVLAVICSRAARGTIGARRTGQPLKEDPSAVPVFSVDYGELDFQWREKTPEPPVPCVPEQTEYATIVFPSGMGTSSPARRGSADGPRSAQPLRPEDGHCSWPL

Turning to “variant PD-L1 ECD-Fc I36T, I46V, D55G, M97L, K106E, K144E, T185A, R195G (Fc fusion)”, the MFI at 20 nM in assay [1] was 190. Further, in assay [2], the Fold Change Compared to WT PD-L1 was determined as 0 and the MFI at 20 nM is 69.
“CD155 IgV Fc (from UniProt P15151) (Fc fusion)” gave a Fold ↑ to WT ECD in [3] of 1.65. Besides, the MFI at 100 nM in assay [3] stood at 2940; with human CD226 (human), 4690; with human CD96 (human), 3270; with human TIGIT (human) [4], 4690.
In assay [2], “variant PD-L1 ECD-Fc G15A, I36T, V129D, R195G (Fc fusion)” gave a Fold Change Compared to WT PD-L1 of 0 and an MFI at 20 nM of 125.
Consider “variant PD-L1 ECD-Fc G15A, I36T, V129D (Fc fusion)”, for which the MFI at 20 nM in assay [1] was found to be 136; in assay [2], 114. Besides, the Fold Change Compared to WT PD-L1 in assay [2] was found to be 0.
Taken in the same sequence, the figures for “variant PD-L1 ECD-Fc I36T, G52R, M97L, V112A, K144E, V175A, P198T (Fc fusion)” were 149, 81 and 0.
With “variant PD-L1 ECD-Fc V93E, V129D (Fc fusion)”, the MFI at 20 nM in assay [1] stood at 150. The same substance returned a Fold Change Compared to WT PD-L1 in [2] of 0.4.
For Fc Control, the RLU (IL-2-luciferase reporter) (in assay [5]; with human PD-1 (human); with human TIGIT (human) [6]) was 624 RLU in each case. Further, the MFI at 20 nM is 132 in assay [1] and 59 in [2].
Take “variant PD-L1 ECD-Fc V129D, T150A (Fc fusion)”: the MFI at 20 nM in [1] is 142. The substance further gave a Fold Change Compared to WT PD-L1 in assay [2] of 0.6.
With “variant PD-L1 ECD-Fc V129D, H202Q (Fc fusion)”, the results for the Fold Change Compared to WT PD-L1 in [1] and in assay [2] were 1.6 and 0.6, respectively. In assay [1], this substance returned an MFI at 20 nM of 219.
In the case of “variant PD-L2 IgV-Fc H15Q, R76G, I85F (SEQ ID NO 685) (Fc fusion)”, the Fortebio binding to PD-1-Fc Response Units (Response Units) with PD-1-Fc (Homo sapiens) was -0.006. In [7], this substance had a Fold increase over wildtype PD-L2 IgV-Fc of 0.19 and an MFI at 50 nM of 1890.
On to CTLA4-Fc (Fc fusion), for which the MFI at 20 nM in assay [1] came out at 200000; in assay [2] it was 59.
On to “variant PD-L1 ECD-Fc M18V, I98L, L124S, P198T, L206F (Fc fusion)”, for which the MFI at 20 nM in assay [1] came out at 143. In assay [2], this substance came in with a Fold Change Compared to WT PD-L1 of 0.7.
For the substance “variant PD-L1 ECD-Fc I36T, M97L, A103V, Q155H (Fc fusion)”, the MFI at 20 nM in assay [1] is 128. In assay [2], the Fold Change Compared to WT PD-L1 is 0 and the MFI at 20 nM stood at 120.
The substance “variant PD-L1 ECD-Fc G15A, I36T, M97L, K111E, H202Q (Fc fusion)” returned an MFI at 20 nM in assay [2] of 112.
As for “variant PD-L1 ECD-Fc V129D, P198T (Fc fusion)”, the MFI at 20 nM in assay [1] came to 152. The Fold Change Compared to WT PD-L1 in assay [2] came out at 1.
In the case of “variant PD-L2 IgV-Fc H15Q, R76G, I85F (SEQ ID NO 680) (Fc fusion)”, the Fortebio binding to PD-1-Fc Response Units (Response Units) in the assay with PD-1-Fc (Homo sapiens) is -0.038. Moreover, in [7], the Fold increase over wildtype PD-L2 IgV-Fc stood at 0.3 and the MFI at 50 nM was 2940.
“variant PD-L1 ECD-Fc G15A, V129D (Fc fusion)” had an MFI at 20 nM in assay [1] of 128. In [2], this substance registered a Fold Change Compared to WT PD-L1 of 0.7.
On to CD112 ECD-Fc (Fc fusion), for which the MFI at 100 nM in assay [8] was determined as 1100 MFI; in assay [9], 29200 MFI.
As for “variant PD-L1 ECD-Fc K28I, S99G (Fc fusion)”, the MFI at 20 nM in assay [2] stood at 830.
The substance “variant PD-L1 ECD-Fc L35P, I36S, M97L, K111E (Fc fusion)” yielded an MFI at 20 nM in assay [1] of 155. In [2], this substance yielded a Fold Change Compared to WT PD-L1 of 0.1 and an MFI at 20 nM of 190.
For the substance “variant PD-L1 ECD-Fc M18V, M97L, F193S, R195G, E200K, H202Q (Fc fusion)”, in [2], the Fold Change Compared to WT PD-L1 amounted to 0 and the MFI at 20 nM is 69.
